From PMC3326337 come the findings set out here.

Substitutions are numbered along the chain they refer to.

For data set [1], the target named is T1, His-CRP (cAMP receptor protein) (Escherichia coli, UniProt P0ACJ8 1-210). The data set can be described thus: EMSA.
For data set [2], the target named is T1, His-CRP (cAMP receptor protein). The data set can be described thus: DRaCALA.
For data set [3] the target is unchanged. The data set can be described thus: DRaCALA. The source holds these as a separate data set.
Data set [4] deals with Maltose binding protein (MBP) (UniProt P0AEX9 27-396). Description: DRaCALA.

What is called Kd is the equilibrium constant for the complex coming apart. A low value points to a tighter complex.

T1 sequence (P0ACJ8 whole entry): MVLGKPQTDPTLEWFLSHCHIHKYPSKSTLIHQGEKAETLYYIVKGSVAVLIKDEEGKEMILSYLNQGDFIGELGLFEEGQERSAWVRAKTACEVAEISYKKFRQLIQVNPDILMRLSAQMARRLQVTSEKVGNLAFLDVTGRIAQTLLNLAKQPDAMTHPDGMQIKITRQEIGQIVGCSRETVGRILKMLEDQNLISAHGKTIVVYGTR

B1: ICAP oligo (vl1427/vl1428) (dsDNA)
DNA 1: GCAACGCAATAAATGTGATCTAGATCACATTTTAGGCACCC
DNA 2: GGGGTGCCTAAAATGTGATCTAGATCACATTTATTGCGTTG
As for B1, the Kd in data set [1] worked out at 0.081 nM; in data set [2], 0.036 nM.

B2: ICAP 8,10:G-C (gd132/gd133) (dsDNA)
DNA 1: AGGAGGAATAAATCTCATCTAGATGAGATTTTAGAGGAGG
DNA 2: CCTCCTCTAAAATCTCATCTAGATGAGATTTATTCCTCCT
In the case of B2, the binding result in data set [3] is on record as “no binding”.

B3: ICAP 40-bp (gd126/gd127) (dsDNA)
DNA 1: B2 DNA 1 with C14G, C16G, G25C, G27C
DNA 2: B2 DNA 2 with C14G, C16G, G25C, G27C
In the case of B3, the values for the binding result in data set [3] and in data set [4] were “binds” and “no binding”, respectively.

B4: ICAP 10:G-C (gd130/gd131) (dsDNA)
DNA 1: B2 DNA 1 with C14G, G27C
DNA 2: B2 DNA 2 with C14G, G27C
With B4, the binding result in data set [3] is recorded as “no binding”.
